Assay in all cases: pull-down
The target in assay [1] is 6 × His-tagged FER–CD (Arabidopsis thaliana, UniProt Q9SCZ4 469-895).
Assay [2] addresses T1, FER^K565R–CD–His (kinase dead form) (Arabidopsis thaliana, UniProt Q9SCZ4 469-895, K565R).
Assay [3] deals with FER–CD (+ ATP) treated with CIP (Arabidopsis thaliana, UniProt Q9SCZ4 469-895).
The target of assay [4] is T1, FER^K565R–CD–His (kinase dead form). This is another data set of the same source.

Numbering of substitutions follows the chain as printed. Where two headings read alike, the source gives them in different places.

Sequence of 6 × His-tagged FER–CD (Q9SCZ4 469-895): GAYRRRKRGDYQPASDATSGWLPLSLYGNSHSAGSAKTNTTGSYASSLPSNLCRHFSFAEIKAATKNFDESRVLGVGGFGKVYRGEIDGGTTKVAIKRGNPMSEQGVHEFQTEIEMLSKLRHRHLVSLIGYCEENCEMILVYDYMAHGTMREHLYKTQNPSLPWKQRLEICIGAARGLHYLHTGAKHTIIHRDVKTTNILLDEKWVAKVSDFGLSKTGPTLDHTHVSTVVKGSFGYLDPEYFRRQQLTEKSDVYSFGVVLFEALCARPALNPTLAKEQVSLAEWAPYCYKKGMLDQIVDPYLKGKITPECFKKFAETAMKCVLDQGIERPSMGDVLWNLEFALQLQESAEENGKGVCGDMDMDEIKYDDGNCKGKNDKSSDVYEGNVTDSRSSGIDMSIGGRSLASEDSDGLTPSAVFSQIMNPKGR
T1 sequence (Q9SCZ4 469-895 K565R): as the sequence (Q9SCZ4 469-895) above, with K97R counted along it
Sequence of FER–CD (+ ATP) treated with CIP (Q9SCZ4 469-895): as the sequence (Q9SCZ4 469-895) above

B1: GST–CAR5 (natural protein)
chain: MIVSFLYFSSLFPTSLRKINLVAGEKHKDRRMKPSLMDSLLGLLRIRIKRGVNLAVRDLNSSDPYVVVKMAKQKLKTRVIYKNVNPEWNEDLTLSVSDPNLTVLLTVYDYDTFTKDDKMGDAEFGIKPFVNALKMHLHDLPSGTIVTTVQPSRDNCLAEESRVIWSDGKLVQDIVLRLRHVECGEVEAQLQWIDLPGKGL
For the molecule B1, the binding result in assay [1] is recorded as “binds”.

B2: GST–CAR10 (natural protein)
chain: MDQKPLGLLTIHVKRGINLAIRDHRSSDPYIVLNVADQTLKTRVVKKNCNPVWNEEMTVAIKDPNVPIRLTVFDWDKFTGDDKMGDANIDIQPYLEALKMGMELLRLPNGCAIKRVQPSRHNCLSDESSIVWNNGKITQDLILRLNNVECGEIEIMLEWHEGAGCRGITSSSKGGGSSST
On to B2, for which the binding result in assay [1] was “binds”.

B3: GST–CAR9 (natural protein)
chain: MEDKPLGILRVHVKRGINLAIRDATTSDPYVVITLANQKLKTRVINNNCNPVWNEQLTLSIKDVNDPIRLTVFDKDRFSGDDKMGDAEIDFRPFLEAHQMELDFQKLPNGCAIKRIRPGRTNCLAEESSITWSNGKIMQEMILRLKNVECGEVELMLEWTDGPGCKGLGREGSKKTPWMPTKRLD
B3: the binding result in assay [1] and in assay [2] was “binds” throughout.

B4: GST–CAR6 (natural protein)
chain: MEKTEEEVEMKELVGLVRILVKRGIDLARRDALSSDPFVVITMGPQKLKSFTVKNNCNPEWNEELTLAIEDPNEPVKLMVYDKDTFTADDKMGDAQIDMKPFLDVHKLGLKELPHGKELKRIVPTRDNCLSEDSIIVSDNGKIVQDMILLLKNVECGKVEIQLEWLKNPGGSGL
In the case of B4, in assay [1], the binding result was “binds”.

B5: GST–CAR9^3M (natural protein)
chain: B3 chain with T26A, S27A, Y30F
As to B5, the binding result in assay [3] and in assay [4] was “binds” each time.
